Test results taken from patent US20090099029A1, “Methods and substrates for conducting assays” (Invitrogen Corporation, priority 2005, published 2009).
Substitutions are numbered along the chain they refer to.

B1: MAP2K3(MEK3) (protein)
chain: MSKPPAPNPTPPRNLDSRTFITIGDRNFEVEADDLVTISELGRGAYGVVEKVRHAQSGTIMAVKRIRATVNSQEQKRLLMDLDINMRTVDCFYTVTFYGALFREGDVWICMELMDTSLDKFYRKVLDKNMTIPEDILGEIAVSIVRALEHLHSKLSVIHRDVKPSNVLINKEGHVKMCDFGISGYLVDSVAKTMDAGCKPYMAPERINPELNQKGYNVKSDVWSLGITMIEMAILRFPYESWGTPFQQLKQVVEEPSPQLPADRFSPEFVDFTAQCLRKNPAERMSYLELMEHPFFTLHKTKKTDIAAFVKEILGEDS
modifications: left off: a dimerising Fc or GST
B2: GRK6 (protein)
chain: MELENIVANTVLLKAREGGGGNRKGKSKKWRQMLQFPHISQCEELRLSLERDYHSLCERQPIGRLLFREFCATRPELSRCVAFLDGVAEYEVTPDDKRKACGRQLTQNFLSHTGPDLIPEVPRQLVTNCTQRLEQGPCKDLFQELTRLTHEYLSVAPFADYLDSIYFNRFLQWKWLERQPVTKNTFRQYRVLGKGGFGEVCACQVRATGKMYACKKLEKKRIKKRKGEAMALNEKQILEKVNSRFVVSLAYAYETKDALCLVLTLMNGGDLKFHIYHMGQAGFPEARAVFYAAEICCGLEDLHRERIVYRDLKPENILLDDHGHIRISDLGLAVHVPEGQTIKGRVGTVGYMAPEVVKNERYTFSPDWWALGCLLYEMIAGQSPFQQRKKKIKREEVERLVKEVPEEYSERFSPQARSLCSQLLCKDPAERLGCRGGSAREVKEHPLFKKLNFKRLGAGMLEPPFKPDPQAIYCKDVLDIEQFSTVKGVELEPTDQDFYQKFATGSVPIPWQNEMVETECFQELNVFGLDGSVPPDLDWKGQPPAPPKKGLLQRLFSRQDCCGNCSDSEEELPTRL
modifications: left off: a dimerising Fc or GST
B3: EPHA3 (protein)
chain: RFCGYKSKHGADEKRLHFGNGHLKLPGLRTYVDPHTYEDPTQAVHEFAKELDATNISIDKVVGAGEFGEVCSGRLKLPSKKEISVAIKTLKVGYTEKQRRDFLGEASIMGQFDHPNIIRLEGVVTKSKPVMIVTEYMENGSLDSFLRKHDAQFTVIQLVGMLRGIASGMKYLSDMGYVHRDLAARNILINSNLVCKVSDFGLSRVLEDDPEAAYTTRGGKIPIRWTSPEAIAYRKFTSASDVWSYGIVLWEVMSYGERPYWEMSNQDVIKAVDEGYRLPPPMDCPAALYQLMLDCWQKDRNNRPKFEQIVSILDKLIRNPGSLKIITSAAARPSNLLLDQSNVDITTFRTTGDWLNGVWTAHCKEIFTGVEYSSCDTIAKISTDDMKKVGVTVVGPQKKIISSIKALETQSKNGPVPV
modifications: left off: small tags and cut ends
B4: IRAK4 (protein)
chain: MNKPITPSTYVRCLNVGLIRKLSDFIDPQEGWKKLAVAIKKPSGDDRYNQFHIRRFEALLQTGKSPTSELLFDWGTTNCTVGDLVDLLIQNEFFAPASLLLPDAVPKTANTLPSKEAITVQQKQMPFCDKDRTLMTPVQNLEQSYMPPDSSSPENKSLEVSDTRFHSFSFYELKNVTNNFDERPISVGGNKMGEGGFGVVYKGYVNNTTVAVKKLAAMVDITTEELKQQFDQEIKVMAKCQHENLVELLGFSSDGDDLCLVYVYMPNGSLLDRLSCLDGTPPLSWHMRCKIAQGAANGINFLHENHHIHRDIKSANILLDEAFTAKISDFGLARASEKFAQTVMTSRIVGTTAYMAPEALRGEITPKSDIYSFGVVLLEIITGLPAVDEHREPQLLLDIKEEIEDEEKTIEDYIDKKMNDADSTSVEAMYSVASQCLHEKKNKRPDIKKVQQLLQEMTAS
modifications: left off: small tags and cut ends
B5: GRK4 (protein)
chain: MELENIVANSLLLKARQGGYGKKSGRSKKWKEILTLPPVSQCSELRHSIEKDYSSLCDKQPIGRRLFRQFCDTKPTLKRHIEFLDAVAEYEVADDEDRSDCGLSILDRFFNDKLAAPLPEIPPDVVTECRLGLKEENPSKKAFEECTRVAHNYLRGEPFEEYQESSYFSQFLQWKWLERQPVTKNTFRHYRVLGKGGFGEVCACQVRATGKMYACKKLQKKRIKKRKGEAMALNEKRILEKVQSRFVVSLAYAYETKDALCLVLTIMNGGDLKFHIYNLGNPGFDEQRAVFYAAELCCGLEDLQRERIVYRDLKPENILLDDRGHIRISDLGLATEIPEGQRVRGRVGTVGYMAPEVVNNEKYTFSPDWWGLGCLIYEMIQGHSPFKKYKEKVKWEEVDQRIKNDTEEYSEKFSEDAKSICRMLLTKNPSKRLGCRGEGAAGVKQHPVFKDINFRRLEANMLEPPFCPDPHAVYCKDVLDIEQFSVVKGIYLDTADEDFYARFATGCVSIPWQNEMIESGCFKDINKSESEEALPLDLDKNIHTPVSRPNRGFFYRLFRRGGCLTMVPSEKEVEPKQC
modifications: left off: a dimerising Fc or GST
B6: DYRK3 (protein)
chain: MGGTARGPGRKDAGPPGAGLPPQQRRLGDGVYDTFMMIDETKCPPCSNVLCNPSEPPPPRRLNMTTEQFTGDHTQHFLDGGEMKVEQLFQEFGNRKSNTIQSDGISDSEKCSPTVSQGKSSDCLNTVKSNSSSKAPKVVPLTPEQALKQYKHHLTAYEKLEIINYPEIYFVGPNAKKRHGVIGGPNNGGYDDADGAYIHVPRDHLAYRYEVLKIIGKGSFGQVARVYDHKLRQYVALKMVRNEKRFHRQAAEEIRILEHLKKQDKTGSMNVIHMLESFTFRNHVCMAFELLSIDLYELIKKNKFQGFSVQLVRKFAQSILQSLDALHKNKIIHCDLKPENILLKHHGRSSTKVIDFGSSCFEYQKLYTYIQSRFYRAPEIILGSRYSTPIDIWSFGCILAELLTGQPLFPGEDEGDQLACMMELLGMPPPKLLEQSKRAKYFINSKGIPRYCSVTTQADGRVVLVGGRSRRGKKRGPPGSKDWGTALKGCDDYLFIEFLKRCLHWDPSARLTPAQALRHPWISKSVPRPLTTIDKVSGKRVVNPASAFQGLGSKLPPVVGIANKLKANLMSETNGSIPLCSVLPKLIS
modifications: left off: a dimerising Fc or GST
B7: GRK7 (protein)
chain: MVDMGALDNLIANTAYLQARKPSDCDSKELQRRRRSLALPGLQGCAELRQKLSLNFHSLCEQQPIGRRLFRDFLATVPTFRKAATFLEDVQNWELAEEGPTKDSALQGLVATCASAPAPGNPQPFLSQAVATKCQAATTEEERVAAVTLAKAEAMAFLQEQPFKDFVTSAFYDKFLQWKLFEMQPVSDKYFTEFRVLGKGGFGEVCAVQVKNTGKMYACKKLDKKRLKKKGGEKMALLEKEILEKVSSPFIVSLAYAFESKTHLCLVMSLMNGGDLKFHIYNVGTRGLDMSRVIFYSAQIACGMLHLHELGIVYRDMKPENVLLDDLGNCRLSDLGLAVEMKGGKPITQRAGTNGYMAPEILMEKVSYSYPVDWFAMGCSIYEMVAGRTPFKDYKEKVSKEDLKQRTLQDEVKFQHDNFTEEAKDICRLFLAKKPEQRLGSREKSDDPRKHHFFKTINFPRLEAGLIEPPFVPDPSVVYAKDIAEIDDFSEVRGVEFDDKDKQFFKNFATGAVPIAWQEEIIETGLFEELNDPNRPTGCEEGNSSKSGVCLLL
modifications: left off: a dimerising Fc or GST
B8: MAP2K6(MKK6) (protein)
chain: MSQSKGKKRNPGLKIPKEAFEQPQTSSTPPRDLDSKACISIGNQNFEVKADDLEPIMELGRGAYGVVEKMRHVPSGQIMAVKRIRATVNSQEQKRLLMDLDISMRTVDCPFTVTFYGALFREGDVWICMELMDTSLDKFYKQVIDKGQTIPEDILGKIAVSIVKALEHLHSKLSVIHRDVKPSNVLINALGQVKMCDFGISGYLVDSVAKTIDAGCKPYMAPERINPELNQKGYSVKSDIWSLGITMIELAILRFPYDSWGTPFQQLKQVVEEPSPQLPADKFSAEFVDFTSQCLKKNSKERPTYPELMQHPFFTLHESKGTDVASFVKLILGD
modifications: left off: small tags and cut ends
B9: MAP2K6, mutant (protein)
chain: B8 chain with S207E, T211E
modifications: left off: small tags and cut ends
B10: GSK3A (protein)
chain: MSGGGPSGGGPGGSGRARTSSFAEPGGGGGGGGGGPGGSASGPGGTGGGKASVGAMGGGVGASSSGGGPGGSGGGGSGGPGAGTSFPPPGVKLGRDSGKVTTVVATLGQGPERSQEVAYTDIKVIGNGSFGVVYQARLAETRELVAIKKVLQDKRFKNRELQIMRKLDHCNIVRLRYFFYSSGEKKDELYLNLVLEYVPETVYRVARHFTKAKLTIPILYVKVYMYQLFRSLAYIHSQGVCHRDIKPQNLLVDPDTAVLKLCDFGSAKQLVRGEPNVSYICSRYYRAPELIFGATDYTSSIDVWSAGCVLAELLLGQPIFPGDSGVDQLVEIIKVLGTPTREQIREMNPNYTEFKFPQIKAHPWTKVFKSRTPPEAIALCSSLLEYTPSSRLSPLEACAHSFFDELRCLGTQLPNNRPLPPLFNFSAGELSIQPSLNAILIPPHLRSPAGTTTLTPSSQALTETPTSSDWQSTDATPTLTNSS
modifications: left off: small tags and cut ends

test system: kinases of Table 6 on Myelin Basic Protein (MBP); test: Kinase assay using MBP substrate, ProQ Diamond stain (Table 6); format: biochemical; conditions: kinase printed on MBP-coated slide; 20 uM ATP, 30° C.; ProQ Diamond Microarray Stain; graded Strong/Weak/Negative
Description: In this illustrative example, four-well slides were designed with a hydrophobic mask surrounding 4-wells of aldehyde- or epoxy-coated glass (smooth or ES grade; Erie Scientific (Portsmouth, N.H.)). […] Bovine, dephosphorylated, Myelin Basic Protein (MBP) was purchased from Upstate Biotechnology (#13-110). MBP was diluted to 1 mg/ml in PBS, applied to the slide surface, covered with a coverslip, and left overnight at 4° C. to coat the slide with the MBP. Slides were washed 3 times with water and spun dry before printing.
Kinases were purchased from Panvera (Invitrogen, Carlsbad, Calif.), diluted in printing buffer (50 mM Tris pH 7.5, 25% glyercol, 0.05% TritonX-100, 2 mM DTT) and deposited using a GeneMachine OmniGrid100. Slides were stored at −20° C.
Reactions were performed following removal of the slide from the freezer. Reaction buffer (20 mM HEPES pH 7.5, 4 mM MgCl2, 2 mM DTT, 20 uM ATP, 5% DMSO) was added with or without inhibitor, a coverslip applied, and the slide placed at 30° C. for the appropriate reaction time. The slide was washed with water to stop the reaction (3 times) and spun dry. ProQ Diamond Microarray Stain (Invitrogen #P33706) was applied, covered with a coverslip, and the slide was incubated in the dark at room temperature for 30 minutes. The slide was destained and washed three times with water, and spun dry.

| Molecule | MBP Kinase Activity |
| --- | --- |
| B1 | Negative |
| B2 | Negative |
| B3 | Strong |
| B4 | Strong |
| B5 | Negative |
| B6 | Negative |
| B7 | Negative |
| B8 | Weak |
| B9 | Negative |
| B10 | Weak |
